# Source: PMC3622243
# Tests used:
# [1] = molecular target: LILRB2 on transduced Baf3 cells (UniProt Q8N423); test: flow cytometry on cells
# [2] = molecular target: HLA-B27 homodimer (B27 H chain dimer, β2m-free) (human); test: SPR
Substance,percent reduction of bound B27 Flu NP heterotrimer tetramer over 1 hour [1] [%],Kd [2] [nM]
"HLA-B27 homodimer (B27 H chain dimer, β2m-free) (complex)",43,–
LILRB2 incorporating the two immunoglobulin-like domains D1 and D2 (domain or fragment),–,2500
